Source: patent publication US5858973

Target: IDX-1 (IDX-1/pBJ5 expressed in NIH-3T3) (Rattus norvegicus) (UniProt P52947)
Test: cell_activity

Chain of IDX-1 (IDX-1/pBJ5 expressed in NIH-3T3) (Rattus norvegicus) (P52947 other isoform, or with tags, fused parts or gaps): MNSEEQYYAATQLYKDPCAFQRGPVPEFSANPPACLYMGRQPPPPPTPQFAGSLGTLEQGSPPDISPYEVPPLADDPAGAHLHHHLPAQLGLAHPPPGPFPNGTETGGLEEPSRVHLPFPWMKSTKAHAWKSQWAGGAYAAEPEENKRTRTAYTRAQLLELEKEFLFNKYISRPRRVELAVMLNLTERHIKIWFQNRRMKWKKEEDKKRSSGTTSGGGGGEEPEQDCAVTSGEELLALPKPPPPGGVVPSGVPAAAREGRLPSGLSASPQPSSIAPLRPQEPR

## SMS900CAT promoter (-900 to +54)
CAT reporter in NIH-3T3
  activity: 4 fold

## SMS900(delta-250/-120)CAT promoter
CAT reporter in NIH-3T3
  activity: 5 fold

## SMS(-900/-250)TKCAT
Parent TKCAT not activated
  activity: 4 fold
